B1: human ACVR2B.Fc fusion protein (Fc fusion)
chain: SGRGEAETRECIYYNANWELERTNQSGLERCEGEQDKRLHCYASWRNSSGTIELVKKGCWLDDFNCYDRQECVATEENPQVYFCCCEGNFCNERFTHLPEAGGPEVTYEPPPTAPTLLT

The target of test [1] is ACVR1 (UniProt Q04771).
Test [2] deals with T1, Activin A.∆D406 (human, UniProt P08476 311-426, ∆D406).
T1 sequence: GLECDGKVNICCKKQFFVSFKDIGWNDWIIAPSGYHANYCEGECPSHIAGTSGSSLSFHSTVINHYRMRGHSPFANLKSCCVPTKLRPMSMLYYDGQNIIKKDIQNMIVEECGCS
Description: SPR. (In SPR one partner is held on a chip, and binding of the other changes the refractive index at the surface.)

The target of test [3] is T1, Activin A.∆D406. Description: SPR. The source holds these as a separate data set.
In test [4] the target is B1. Description: SPR.
Test [5] has as its target B1. Put plainly: SPR.
Test [6] has as its target T2, ACVR1 (UniProt Q04771 21-123).
T2 sequence (looked up): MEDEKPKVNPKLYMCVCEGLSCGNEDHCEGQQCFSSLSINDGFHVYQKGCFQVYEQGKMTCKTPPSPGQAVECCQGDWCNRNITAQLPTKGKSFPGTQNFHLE
Put plainly: cell-based or functional assay.

The target in test [7] is T3, human ACVR2B.Fc fusion protein (human, UniProt Q13705 19-137).
T3 construct: Probably the extracellular domain (surmise); Captured on Protein A in one SPR experiment, coupled to the chip in another
T3 sequence (looked up): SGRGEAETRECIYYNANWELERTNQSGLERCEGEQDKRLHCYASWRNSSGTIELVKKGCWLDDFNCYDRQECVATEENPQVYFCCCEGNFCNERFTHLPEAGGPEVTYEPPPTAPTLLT
Put plainly: SPR; Biacore 3000, CM5 chip; human ACVR2B.Fc captured on covalently immobilised Protein A; ligand 100nM-0.14 nM flowed at 100 uL/minute; 25°C; HBS-EP (10 mM Hepes, 150 mM NaCl, 3.4 mM EDTA, 0.05% polysorbate 20, pH 7.4); 1:1 binding model with mass transport limitation. As to conditions: both partners purified.

Test [8] has as its target T4, monomeric extracellular domain of ACVR2B (UniProt Q13705 19-137).
T4 construct: ACVR2B, extracellular domain, monomeric
T4 sequence (looked up): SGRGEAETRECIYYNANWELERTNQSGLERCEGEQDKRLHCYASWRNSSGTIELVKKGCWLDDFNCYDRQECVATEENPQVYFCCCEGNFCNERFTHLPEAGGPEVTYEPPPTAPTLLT
Description: SPR; complexes of ligand•type II receptor extracellular domain formed at 1:2.5 ratio and injected over captured ACVR1B-Fc and ACVR1-Fc. To be noted: both partners purified.

In the test with ACVR1 [1], “Activin A (from UniProt P08476 311-426) (ligand)” came in with an IC50 of inhibition of BMP7 (12 nM)-induced Smad1/5/8 luciferase reporter signal in HEK293 cells of 1400 pM.

The Kd is a measure of binding affinity in units of concentration. A low value points to tighter binding. The term koff denotes a measure of how fast the partners let go of each other. Low readings indicate a long-lived complex, high ones a short-lived complex. For B1, binding with Activin A.∆D406 [2] was characterised by a dissociation constant (Kd) of 4.62 pM. In the test with Activin A.∆D406 [3], this molecule had a koff of 0.000254 s⁻¹.

B2: Activin A.Nod.F2TL (ligand)
chain: GLECDGKVNICCKKQFFVSFKDIGWNDWIIAPSGYHANYCEGECPSHIAGTSGSSLSFHSTVINHYRMRGHSPFANLKSCCVPTKLRPMSMLYYDNGRIIKKDIQNMIVEECGCS
With B2, binding in test [4] was put at a Kd of 5.11 pM. This molecule had a koff in test [5] of 0.00027 s⁻¹.

B3: Activin A.∆D406 (ligand, human, UniProt P08476 311-426, looked up)
chain: GLECDGKVNICCKKQFFVSFKDIGWNDWIIAPSGYHANYCEGECPSHIAGTSGSSLSFHSTVINHYRMRGHSPFANLKSCCVPTKLRPMSMLYYDGQNIIKKDIQNMIVEECGCS
notes: also called ActA.ΔD406; source: CHO-K1 cells expressing human Furin, stably expressed, purified (heparin, size exclusion, C4 reverse phase)
With B3, the “IC50 of inhibition of BMP7 (12 nM)-induced Smad1/5/8 luciferase reporter signal in HEK293 cells” value with ACVR1 [6] is 20000 pM. For the same molecule, the binding result in test [7] is “binds”.

B4: Activin A (ligand, human, UniProt P08476 311-426, looked up)
chain: GLECDGKVNICCKKQFFVSFKDIGWNDWIIAPSGYHANYCEGECPSHIAGTSGSSLSFHSTVINHYRMRGHSPFANLKSCCVPTKLRPMSMLYYDDGQNIIKKDIQNMIVEECGCS
notes: Activin A (inhibin beta A chain), human, mature region cloned downstream of the mouse Inhba pro-peptide; the mature dimer was isolated; rhActivin A from R and D Systems is named only for the in vivo implants; also called wild-type Activin A; Activin A WT; source: CHO-K1 cells expressing human Furin, stably expressed, purified (heparin, size exclusion, C4 reverse phase)
For B4, the binding result in test [8] and in test [7] was “binds” in each case. The same molecule displayed a Kd in test [4] of 4.49 pM. Besides, in test [5], the koff is 8.46e-05 s⁻¹.
